In the assay the target is T1, HA epitope-tagged PI3Kγ (pCMV-PI3 Kp110γ wild type) (Homo sapiens (Human), UniProt P48736 1-1102).
T1 construct: Full-length wild type with HA tag, expressed in transfected NIH-3T3 cells; also called HA-PI3Kγ
Description: co-immunoprecipitation from cytosolic extracts of transfected NIH-3T3 cells.

From patent publication US20060026702A1 (DUKE UNIVERSITY, published 2006) come the findings set out here.

T1 sequence (P48736 other isoform, or with tags, fused parts or gaps limits assumed): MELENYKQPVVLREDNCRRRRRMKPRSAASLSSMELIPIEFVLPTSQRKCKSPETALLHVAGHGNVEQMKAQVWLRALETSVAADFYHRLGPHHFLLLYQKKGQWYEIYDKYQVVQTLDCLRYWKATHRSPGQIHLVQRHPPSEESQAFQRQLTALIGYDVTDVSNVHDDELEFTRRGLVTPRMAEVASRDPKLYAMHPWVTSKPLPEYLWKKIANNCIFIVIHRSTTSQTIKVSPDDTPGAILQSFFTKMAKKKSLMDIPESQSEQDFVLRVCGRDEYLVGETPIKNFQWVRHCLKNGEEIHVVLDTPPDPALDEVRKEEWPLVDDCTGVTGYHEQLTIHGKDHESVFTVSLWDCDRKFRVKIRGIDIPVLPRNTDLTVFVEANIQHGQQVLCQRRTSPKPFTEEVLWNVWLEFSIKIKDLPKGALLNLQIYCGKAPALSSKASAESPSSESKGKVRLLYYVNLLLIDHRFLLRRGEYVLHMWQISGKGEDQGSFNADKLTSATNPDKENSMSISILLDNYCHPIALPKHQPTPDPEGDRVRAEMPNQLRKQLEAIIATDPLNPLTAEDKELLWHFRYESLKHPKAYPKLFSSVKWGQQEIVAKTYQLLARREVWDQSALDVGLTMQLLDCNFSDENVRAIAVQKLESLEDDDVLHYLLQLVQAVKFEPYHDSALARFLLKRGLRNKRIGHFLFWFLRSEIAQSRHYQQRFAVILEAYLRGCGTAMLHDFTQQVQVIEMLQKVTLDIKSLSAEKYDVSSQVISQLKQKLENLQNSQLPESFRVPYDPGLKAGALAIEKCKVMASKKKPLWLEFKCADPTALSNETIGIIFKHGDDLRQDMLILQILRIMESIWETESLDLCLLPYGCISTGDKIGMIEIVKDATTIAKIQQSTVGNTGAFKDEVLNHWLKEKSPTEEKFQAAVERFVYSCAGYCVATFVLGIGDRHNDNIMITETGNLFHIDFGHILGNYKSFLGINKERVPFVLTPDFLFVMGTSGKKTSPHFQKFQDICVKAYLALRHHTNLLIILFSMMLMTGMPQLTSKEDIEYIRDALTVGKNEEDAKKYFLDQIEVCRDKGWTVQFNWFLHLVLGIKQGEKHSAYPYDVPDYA

B1: β-adrenergic receptor kinase 1 (βARK1), bovine cDNA expressed in transfected cells (enzyme, UniProt P21146 1-689, looked up)
chain: MADLEAVLADVSYLMAMEKSKATPAARASKKILLPEPSIRSVMQKYLEDRGEVTFEKIFSQKLGYLLFRDFCLKHLEEAKPLVEFYEEIKKYEKLETEEERLVCSREIFDTYIMKELLACSHPFSKSAIEHVQGHLVKKQVPPDLFQPYIEEICQNLRGDVFQKFIESDKFTRFCQWKNVELNIHLTMNDFSVHRIIGRGGFGEVYGCRKADTGKMYAMKCLDKKRIKMKQGETLALNERIMLSLVSTGDCPFIVCMSYAFHTPDKLSFILDLMNGGDLHYHLSQHGVFSEADMRFYAAEIILGLEHMHNRFVVYRDLKPANILLDEHGHVRISDLGLACDFSKKKPHASVGTHGYMAPEVLQKGVAYDSSADWFSLGCMLFKLLRGHSPFRQHKTKDKHEIDRMTLTMAVELPDSFSPELRSLLEGLLQRDVNRRLGCLGRGAQEVKESPFFRSLDWQMVFLQKYPPPLIPPRGEVNAADAFDIGSFDEEDTKGIKLLDSDQELYRNFPLTISERWQQEVAETVFDTINAETDRLEARKKTKNKQLGHEEDYALGKDCIMHGYMSKMGNPFLTQWQRRYFYLFPNRLEWRGEGEAPQSLLTMEEIQSVEETQIKERKCLLLKIRGGKQFVLQCDSDPELVQWKKELRDAYREAQQLVQRVPKMKNKPRSPVVELSKVPLIQRGSANGL
notes: Over-expressed in NIH-3T3 or HEK 293 cells and immunoprecipitated with a βARK1 monoclonal antibody; also called GRK2; β3ARK1
On to B1, for which the binding result is “binds”.
